Laboratory results reported in article PMC9910460 (Proceedings of the National Academy of Sciences of the …, 2022).

Biological target: TF-Mec1 1–500aa (Saccharomyces cerevisiae, UniProt P38111 1-500)
Assay: pull-down

Sequence of TF-Mec1 1–500aa (P38111 1-500): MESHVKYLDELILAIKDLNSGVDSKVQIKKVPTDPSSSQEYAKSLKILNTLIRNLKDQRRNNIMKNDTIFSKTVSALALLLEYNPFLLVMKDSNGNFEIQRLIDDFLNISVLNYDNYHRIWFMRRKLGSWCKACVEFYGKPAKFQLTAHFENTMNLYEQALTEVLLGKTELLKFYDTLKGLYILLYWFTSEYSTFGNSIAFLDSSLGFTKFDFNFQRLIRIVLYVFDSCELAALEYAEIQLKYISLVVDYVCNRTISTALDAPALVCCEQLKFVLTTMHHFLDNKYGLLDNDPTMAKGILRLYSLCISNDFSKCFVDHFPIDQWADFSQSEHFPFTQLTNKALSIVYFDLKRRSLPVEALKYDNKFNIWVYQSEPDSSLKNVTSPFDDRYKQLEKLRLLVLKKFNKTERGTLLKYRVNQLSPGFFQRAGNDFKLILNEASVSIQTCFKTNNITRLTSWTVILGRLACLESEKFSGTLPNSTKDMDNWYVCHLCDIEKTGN

B1: GST–Atg13 460–640aa (domain or fragment, Saccharomyces cerevisiae, UniProt Q06628 460-640, looked up)
chain: ESQEDLMDFVKLLEEKPDLTIKKTSGNNPPNINISDSLIRYQNLKPSNDLLSEDLSVSLSMDPNHTYHRGRSDSHSPLPSISPSMHYGSLNSRMSQGANASHLIARGGGNSSTSALNSRRNSLDKSSNKQGMSGLPPIFGGESTSYHHDNKIQKYNQLGVEEDDDDENDRLLNQMGNSATK
binding result: binds
